Source: publication PMC9482650, “Quantitative fragmentomics allow affinity mapping of interactomes” (Nature Communications, 2022)

Legend:
Assay in all cases: holdup assay
Parameters in all cases: key: below the threshold = too weak to quantify, mostly under pKd 3.1 to 4
SNTB1, Q13884 = biological target: T1, SNTB1, Q13884
T1 sequence (Q13884 107-205, limits assumed, looked up): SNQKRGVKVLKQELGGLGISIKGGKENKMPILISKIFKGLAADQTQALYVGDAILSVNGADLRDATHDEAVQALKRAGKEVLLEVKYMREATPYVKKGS

MPP7, Q5T2T1 = biological target: T2, MPP7, Q5T2T1
T2 sequence (Q5T2T1 134-230, limits assumed, looked up): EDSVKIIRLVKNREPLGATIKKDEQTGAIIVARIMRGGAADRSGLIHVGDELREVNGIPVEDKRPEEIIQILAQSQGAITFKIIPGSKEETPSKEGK

APBA1_1, Q02410 = biological target: T3, APBA1_1, Q02410
T3 sequence (Q02410 651-752, limits assumed, looked up): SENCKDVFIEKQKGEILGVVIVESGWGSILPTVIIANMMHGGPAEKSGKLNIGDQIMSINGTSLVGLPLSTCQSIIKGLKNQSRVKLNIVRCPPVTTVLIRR

GIPC2, Q8TF65 = conditions: plain residues with an end cap or a label only (N-terminal biotin on a linker: ado-ado)
GIPC2, Q8TF65, sequence (Q8TF65 112-203): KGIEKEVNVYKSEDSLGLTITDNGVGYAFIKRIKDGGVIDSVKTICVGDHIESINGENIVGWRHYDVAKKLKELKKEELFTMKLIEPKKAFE

LNX2_3, Q8N448 = biological target: T4, LNX2_3, Q8N448
T4 sequence (Q8N448 463-564, limits assumed, looked up): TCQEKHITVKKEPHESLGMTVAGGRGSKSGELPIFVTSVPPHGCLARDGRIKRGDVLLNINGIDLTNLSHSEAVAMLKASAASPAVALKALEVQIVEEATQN

PARD3_3, Q8TEW0 = biological target: PARD3_3, Q8TEW0
PARD3_3, Q8TEW0, sequence (Q8TEW0 582-685): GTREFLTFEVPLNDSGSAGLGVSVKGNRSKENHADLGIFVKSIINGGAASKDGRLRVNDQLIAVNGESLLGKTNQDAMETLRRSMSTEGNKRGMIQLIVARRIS

GRIP1_3, Q9Y3R0 = biological target: T5, GRIP1_3, Q9Y3R0
T5 sequence (Q9Y3R0 247-346, limits assumed, looked up): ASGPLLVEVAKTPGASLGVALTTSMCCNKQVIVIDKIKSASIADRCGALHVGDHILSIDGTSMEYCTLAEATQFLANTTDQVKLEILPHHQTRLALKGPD

GRIP1_7, Q9Y3R0 = biological target: T6, GRIP1_7, Q9Y3R0
T6 sequence (Q9Y3R0 999-1096, limits assumed, looked up): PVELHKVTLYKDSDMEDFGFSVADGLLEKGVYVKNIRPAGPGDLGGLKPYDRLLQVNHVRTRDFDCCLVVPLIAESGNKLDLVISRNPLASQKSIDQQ

NHERF4_4, Q86UT5 = biological target: NHERF4_4, Q86UT5
NHERF4_4, Q86UT5, sequence (Q86UT5 464-550): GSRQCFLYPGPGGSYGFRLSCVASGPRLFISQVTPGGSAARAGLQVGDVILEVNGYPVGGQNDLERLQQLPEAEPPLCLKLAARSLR

Inadl_1, Q8NI35 = biological target: Inadl_1, Q8NI35
Inadl_1, Q8NI35, sequence (Q8NI35 113-229): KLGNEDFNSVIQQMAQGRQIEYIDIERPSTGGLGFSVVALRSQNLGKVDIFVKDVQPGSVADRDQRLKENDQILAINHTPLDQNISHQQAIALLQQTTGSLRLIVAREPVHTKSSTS

APBA1_2, Q02410 = biological target: T7, APBA1_2, Q02410
T7 sequence (Q02410 742-832, limits assumed, looked up): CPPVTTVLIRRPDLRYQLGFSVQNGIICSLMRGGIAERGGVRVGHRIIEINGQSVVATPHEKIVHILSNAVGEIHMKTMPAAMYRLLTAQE

MAST1, Q9Y2H9 = biological target: MAST1, Q9Y2H9
MAST1, Q9Y2H9, sequence (Q9Y2H9 962-1065): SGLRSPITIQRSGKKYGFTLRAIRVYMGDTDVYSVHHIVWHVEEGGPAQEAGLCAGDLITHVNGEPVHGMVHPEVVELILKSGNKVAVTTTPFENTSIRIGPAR

GRID2IP_2, A4D2P6 = biological target: GRID2IP_2, A4D2P6
GRID2IP_2, A4D2P6, sequence (A4D2P6 272-370): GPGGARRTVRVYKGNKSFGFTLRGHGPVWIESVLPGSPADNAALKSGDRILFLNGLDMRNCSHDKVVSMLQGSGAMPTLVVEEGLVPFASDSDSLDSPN

TX1BP3, O14907 = biological target: T8, TX1BP3, O14907
T8 sequence (O14907 10-122, limits assumed, looked up): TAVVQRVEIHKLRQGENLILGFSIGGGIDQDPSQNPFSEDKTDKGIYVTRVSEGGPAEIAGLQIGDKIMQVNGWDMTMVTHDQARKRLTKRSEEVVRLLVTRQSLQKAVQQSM

SYNJ2BP, P57105 = biological target: T9, SYNJ2BP, P57105
T9 sequence (P57105 8-110, limits assumed, looked up): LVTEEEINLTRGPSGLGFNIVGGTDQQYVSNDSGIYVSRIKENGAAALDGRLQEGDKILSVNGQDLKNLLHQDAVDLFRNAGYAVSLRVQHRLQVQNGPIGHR

PDZD7_3, Q9H5P4 = biological target: T10, PDZD7_3, Q9H5P4
T10 sequence (Q9H5P4 857-944, limits assumed, looked up): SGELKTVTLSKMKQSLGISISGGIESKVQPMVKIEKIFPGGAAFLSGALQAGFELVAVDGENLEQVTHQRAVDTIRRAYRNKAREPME

GRID2IP_1, A4D2P6 = biological target: GRID2IP_1, A4D2P6
GRID2IP_1, A4D2P6, sequence (A4D2P6 1-87): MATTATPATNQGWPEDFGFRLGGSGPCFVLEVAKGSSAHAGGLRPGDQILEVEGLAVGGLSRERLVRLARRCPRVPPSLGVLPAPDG

HTRA3, P83110 = biological target: T11, HTRA3, P83110
T11 sequence (P83110 354-453, limits assumed, looked up): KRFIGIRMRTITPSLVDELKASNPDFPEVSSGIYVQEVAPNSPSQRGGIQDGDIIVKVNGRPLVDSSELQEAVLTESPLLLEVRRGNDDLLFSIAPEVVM

MAGI3_2, Q5TCQ9 = biological target: MAGI3_2, Q5TCQ9
MAGI3_2, Q5TCQ9, sequence (Q5TCQ9 398-503): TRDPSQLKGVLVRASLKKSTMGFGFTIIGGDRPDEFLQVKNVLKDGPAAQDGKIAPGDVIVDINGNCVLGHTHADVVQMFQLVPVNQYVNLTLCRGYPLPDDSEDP

FRMPD2_1, Q68DX3 = biological target: FRMPD2_1, Q68DX3
FRMPD2_1, Q68DX3, sequence (Q68DX3 770-861): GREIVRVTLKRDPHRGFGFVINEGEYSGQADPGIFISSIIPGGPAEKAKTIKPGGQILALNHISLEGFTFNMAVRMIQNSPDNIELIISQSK

MPDZ_10, O75970 = biological target: T12, MPDZ_10, O75970
T12 sequence (O75970 1624-1722, limits assumed, looked up): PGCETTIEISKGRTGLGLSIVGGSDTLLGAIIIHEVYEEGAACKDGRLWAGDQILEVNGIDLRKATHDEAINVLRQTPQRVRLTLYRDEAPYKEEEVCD

DLG2_2, Q15700 = biological target: DLG2_2, Q15700
DLG2_2, Q15700, sequence (Q15700 189-283): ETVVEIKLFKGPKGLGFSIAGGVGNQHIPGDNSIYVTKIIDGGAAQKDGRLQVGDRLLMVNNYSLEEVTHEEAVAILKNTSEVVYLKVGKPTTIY

SHANK1, Q9Y566 = biological target: T13, SHANK1, Q9Y566
T13 sequence (Q9Y566 658-767, limits assumed, looked up): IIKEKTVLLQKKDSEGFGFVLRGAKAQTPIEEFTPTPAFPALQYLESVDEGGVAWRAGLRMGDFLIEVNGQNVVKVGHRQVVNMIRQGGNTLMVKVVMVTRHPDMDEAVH

[1] = plain residues with an end cap or a label only (N-terminal biotin on a linker: ado-ado)
[2] = modified: acetyl on K at position -1 from the C-terminal residue

Measured: pKd

B1: LSM14A, Q8ND56;Q8ND56-2 (peptide)
chain: EYRKDNKVAA
below the threshold: SNTB1, Q13884; [1] | MPP7, Q5T2T1; [1] | APBA1_1, Q02410; [1] | GIPC2, Q8TF65 | LNX2_3, Q8N448; [1] | PARD3_3, Q8TEW0; [1] | GRIP1_3, Q9Y3R0; [1] | GRIP1_7, Q9Y3R0; [1] | NHERF4_4, Q86UT5; [1] | Inadl_1, Q8NI35; [1] | APBA1_2, Q02410; [1] | MAST1, Q9Y2H9; [1] | GRID2IP_2, A4D2P6; [1] | TX1BP3, O14907; [1] | SYNJ2BP, P57105; [1] | PDZD7_3, Q9H5P4; [1] | GRID2IP_1, A4D2P6; [1] | HTRA3, P83110; [1] | MAGI3_2, Q5TCQ9; [1]

B2: VAC14, Q08AM6 (peptide)
chain: GDHLDRRVVL
3.69: PDZD7_3, Q9H5P4; [1]
3.48: PARD3_3, Q8TEW0; [1]
3.51: MPDZ_10, O75970; [1]
below the threshold: SNTB1, Q13884; [1] | MPP7, Q5T2T1; [1] | APBA1_1, Q02410; [1] | GIPC2, Q8TF65 | LNX2_3, Q8N448; [1] | GRIP1_3, Q9Y3R0; [1] | GRIP1_7, Q9Y3R0; [1] | Inadl_1, Q8NI35; [1] | APBA1_2, Q02410; [1] | DLG2_2, Q15700; [1] | GRID2IP_2, A4D2P6; [1] | SYNJ2BP, P57105; [1] | GRID2IP_1, A4D2P6; [1] | HTRA3, P83110; [1] | MAGI3_2, Q5TCQ9; [1] | SHANK1, Q9Y566; [1]
4.17: MAST1, Q9Y2H9; [1]
3.71: TX1BP3, O14907; [1]
3.78: NHERF4_4, Q86UT5; [1]
3.62: FRMPD2_1, Q68DX3; [1]

B3: PPP1R3G, B7ZBB8 (peptide)
chain: LRYARPADAL
3.73: MAST1, Q9Y2H9; [1]
3.82: APBA1_2, Q02410; [1]
below the threshold: SNTB1, Q13884; [1] | MPP7, Q5T2T1; [1] | APBA1_1, Q02410; [1] | GIPC2, Q8TF65 | FRMPD2_1, Q68DX3; [1] | LNX2_3, Q8N448; [1] | PARD3_3, Q8TEW0; [1] | GRIP1_3, Q9Y3R0; [1] | MPDZ_10, O75970; [1] | GRIP1_7, Q9Y3R0; [1] | NHERF4_4, Q86UT5; [1] | Inadl_1, Q8NI35; [1] | DLG2_2, Q15700; [1] | GRID2IP_2, A4D2P6; [1] | TX1BP3, O14907; [1] | SYNJ2BP, P57105; [1] | PDZD7_3, Q9H5P4; [1] | GRID2IP_1, A4D2P6; [1] | HTRA3, P83110; [1] | MAGI3_2, Q5TCQ9; [1] | SHANK1, Q9Y566; [1]

B4: COMMD3, Q9UBI1 (peptide)
chain: SKSLERATQL
4.24: SNTB1, Q13884; [1]
4.16: APBA1_2, Q02410; [1]
3.75: MAGI3_2, Q5TCQ9; [1]
3.83: DLG2_2, Q15700; [1]
4.23: PDZD7_3, Q9H5P4; [1]
3.51: GRIP1_7, Q9Y3R0; [1]
4.69: MAST1, Q9Y2H9; [1] | GRID2IP_2, A4D2P6; [1]
3.49: GIPC2, Q8TF65
4.81: SHANK1, Q9Y566; [1]
below the threshold: MPP7, Q5T2T1; [1] | APBA1_1, Q02410; [1] | FRMPD2_1, Q68DX3; [1] | LNX2_3, Q8N448; [1] | PARD3_3, Q8TEW0; [1] | GRIP1_3, Q9Y3R0; [1] | MPDZ_10, O75970; [1] | NHERF4_4, Q86UT5; [1] | Inadl_1, Q8NI35; [1] | TX1BP3, O14907; [1] | GRID2IP_1, A4D2P6; [1] | HTRA3, P83110; [1]
3.73: SYNJ2BP, P57105; [1]

B5: XKR7, Q5GH72 (peptide)
chain: QELLEYETTV
4.84: DLG2_2, Q15700; [1]
4.38: GIPC2, Q8TF65
4.85: PDZD7_3, Q9H5P4; [1]
3.65: APBA1_2, Q02410; [1]
4.19: PARD3_3, Q8TEW0; [1]
3.92: TX1BP3, O14907; [1]
3.81: GRID2IP_2, A4D2P6; [1]
5.07: SNTB1, Q13884; [1]
4.97: MAST1, Q9Y2H9; [1]
4.98: SYNJ2BP, P57105; [1]
below the threshold: MPP7, Q5T2T1; [1] | APBA1_1, Q02410; [1] | FRMPD2_1, Q68DX3; [1] | LNX2_3, Q8N448; [1] | GRIP1_3, Q9Y3R0; [1] | MPDZ_10, O75970; [1] | GRIP1_7, Q9Y3R0; [1] | NHERF4_4, Q86UT5; [1] | Inadl_1, Q8NI35; [1] | GRID2IP_1, A4D2P6; [1] | HTRA3, P83110; [1]
4.44: MAGI3_2, Q5TCQ9; [1] | SHANK1, Q9Y566; [1]

B6: PTEN_Ac, P60484 (peptide)
chain: DEDQHTQITKV
below the threshold: MPP7, Q5T2T1; [2] | APBA1_1, Q02410; [2] | FRMPD2_1, Q68DX3; [2] | LNX2_3, Q8N448; [2] | GRIP1_3, Q9Y3R0; [2] | GRIP1_7, Q9Y3R0; [2] | NHERF4_4, Q86UT5; [2] | GRID2IP_1, A4D2P6; [2] | HTRA3, P83110; [2]
4.66: MAST1, Q9Y2H9; [2]
4.18: MPDZ_10, O75970; [2] | SHANK1, Q9Y566; [2]
4.79: SNTB1, Q13884; [2]
4.39: GRID2IP_2, A4D2P6; [2]
3.97: PARD3_3, Q8TEW0; [2]
4.26: APBA1_2, Q02410; [2]
3.74: TX1BP3, O14907; [2]
4.37: DLG2_2, Q15700; [2]
4.55: MAGI3_2, Q5TCQ9; [2]
3.85: Inadl_1, Q8NI35; [2]
5.82: PDZD7_3, Q9H5P4; [2]
3.61: SYNJ2BP, P57105; [2]

B7: NDE1, Q9NXR1;Q9NXR1-2 (peptide)
chain: KSTTRSSSSC
3.93: TX1BP3, O14907; [1]
below the threshold: SNTB1, Q13884; [1] | MPP7, Q5T2T1; [1] | APBA1_1, Q02410; [1] | FRMPD2_1, Q68DX3; [1] | LNX2_3, Q8N448; [1] | PARD3_3, Q8TEW0; [1] | GRIP1_3, Q9Y3R0; [1] | MPDZ_10, O75970; [1] | GRIP1_7, Q9Y3R0; [1] | NHERF4_4, Q86UT5; [1] | Inadl_1, Q8NI35; [1] | APBA1_2, Q02410; [1] | DLG2_2, Q15700; [1] | GRID2IP_1, A4D2P6; [1] | MAGI3_2, Q5TCQ9; [1] | SHANK1, Q9Y566; [1]
